For 20 sequences, protein production results are on record in a protein production outcome set (Wang et al. 2014).

The nature of this series: label from the status in PepcDB records.
As to “MSRKRTENGSESGPATSHVPVDRFGFLKQEHANSPERFSKSKTTSSTDHDREERKVRKWRKMIGVGGSDWKHYVRRKPNVVRRRIRKGIPDCLRGLVWQLISGSRDLLLMNPGVYEQLVIYETSASELDIIRDISRTFPSHVFFQKRHGPGQRSLYNVLKAYSVYDRDVGYVQGMGFIAGLLLLYMSEEDAFWLLVALLKGAVHAPMEGLYHAGLPLVQQYLFQLESLVKELIPKLGEHFTQEMINPSMYASQWFITVFSYSFPFPLALRIWDVFLSEGVKIVFKVGLALLKYCQDELVSKVTV”, the protein production result was “failed”.
As for “MSRMETSRTLSAFPKIISVDDHTVEPPDVWRDRLPKKYQDTGPRIVRAPLKEMTFLGGKFAPVMGGPGDDGPLGDWWVYEDLHRPLTRLDTAVGYSRDEIKLEVITYEQMRPGSYDVPRRLADMDVNHVQSALCFPTFPRFCGQTFTEAKDRELGLLGVRAYNDWMVEEWCGPDAHGRLIPLTLVPLWDARLAAAEVRRNAARGVRAVAFSEIPPHLGLPSVHTDDWDPFLAACDETGTVIAMHIGSSSRMPSTSADAPPAVGSTITFANCCFSMVDWLMSGKFERFPNLRVMYAEGQIGWIPYILERADVVWEENRGWGGVADKVHRPPSELFAGHVFGCFFDDAFGLRNLDAIGIGNVLYETDYPHSDSTWPKSREVGEAQMGHLEAEVVERIVRGNAIELLGLTDDGLWAGPGGAR”, the entry is “failed”; as for “MSRPADKPQPFYFAYGSNMNPAQIEARCRKPEVVATARLPDHRLGFFGSSKIWDGGEESAQPEPGADLWGVVYRLSFHDAEILDTWQKVWLDGTGPYFHFPTQVFDAEGRNYPVLLYKRDVLGPRQKPSAPYLDHIIAGAMARALPPPYIDLLRAIPTCQASTPVPRKASFNPEFFAGLACQCGDLEHHHHHH”, “failed”.
As for “MSRQANRGTESKKMSSELFTLTYGALVTQLCKDYENDEDVNKQLDRMGYNIGVRLIEDFLARSNVGRCHDFRETADVIAKVAFKMYLGITPSITNWSPAGDEFSLILENNPLVDFVELPDNHSALIYSNLLCGVLRGALEMVQMAVEAKFVQDTLKGDGVTEIRMRFIRRIEDNLPAGEE”, the entry is “not failed”.
As for “MSRQFIIQLFLALLLCCLTITFSSIAKSAETTSTDDATDLVVAQKIIKNQQQTEKSSSASAVAVQQPQIANDMADGQSIRNLPSLNEPVIDQANLLSSEQRQALSDQIRQLYQTGKAQMAVVIVPTTGQEDIFDYAMRVGEKWQLGSAKRDNGILMAIAVNDRRIQILTGYGLEGVLPDIVVGRIIRDQITPYFKQAQYAQGIQSGVNEIEKIVNMDPEIAQQAAQDLKQRQEQALHEQQARSQMMVYSLIIVVVGIFASYIVGNRLSAATAGVAGIAAGVISGVGLITSLLIGLGIFLLLITSLAQLILQIFASGGGRGGGGGFGGGGGGGYSGGGGSFGGGGASGSW”, the entry is “failed”.
On to “MSRRDFTRYVRDKAWLAIPGWLFVAALTLLALRKHLSNLRQHQQLLQGNERIRDSEEQARLILDTAPLALLLVNPQTARIRHANSLAREMLGLPPRDPEQAAGSELNLPLKLQPVEQWLSEGEEVLQQEVELELEDKSRLWAIVSLRRLGHDSQPSALIALYDISGRKLLEQQLHESNQQLAEMAVTDPLTRLYNRRHADMVLRDEISRCERYGQTMAIAVFDIDHFKRFNDQYGHQAGDDVLVAVANALRDTTRNTDINARIGGEEFMVIFPYTRLRDAHKVMSRLQMALTHTTFPFVEQRITFSGGVTDWRPGDSPALMMSRADKLLYDAKQAGRNVVLSDQEEA”, for which the protein production entry is “failed”.
As for “MSRRSHNPQSCSSVPTALINGPRVETMTDSVLDVTADALEQAGAHPHRLVVRQHGQVVGRRRWAPWSPDVPSLVYSCSKTFTSAAVGIAVNRGAFGYDDTLADLWPQACTANTGPVAKSMTVRNALSMSTGHSPEQLLEPTLMSRRLPDLNTARILLATEPEGRPGIDFAYNNLATWMLSRLVAQHTGEDVDTIITKEVLDPIGAGPHTWVRDADGIPMGFSGLHIDAEDLSLFGQLLLDDGVHEGARLLPEEWIRQHRVRQVNCDSETDPEWGMGYGWQTWMSSHGYRLDGAFGQYVLIVPEVDAVITMTNEASEGPGDKQAILQAVWDHLLPALADGFQPQPEEIVRTVPTVTGEFDSARSVQGIAPDGSYIVVSPHKESRTWAMSWRCPGTFSHPTDETLDIAVGYEEWQTSHCRVGDDAIDIATSGGWQGETFVARLCVISTPHTLTLRMTPEATTTEWDNEPLNPGGLLGLVHPELRR”, the entry is “failed”; as for “MSRVFVIGAAGKVGQRLIKKLGDGGHEVIALHRKEEQSVLIKAAGALPLLANLVEMDAAALSSAMAGSDVVVFTAGAGGAGIELTNAIDGEGLKTSVAAAELAGVRRFLLVSAFPEAARGTDTSAGFENYMRVKKHADVCLASSELDWVILRPGTLVDSAGSGQVRAGLAIPYGDIPRDDVAAFLAALVDQPEISRQIIELTEGTTPVELAIKALGTR”, “failed”; as for “MSRVSLRLWDPLVRLFHVSIAGVFVANYFFNEAGDDWHIWLGYYAVAWLAVRVVWGFLGPTSARWSDFWPSPARLRAHVRSLIDRKPVHRLGHSPLGALVMVLMMALIFGMGLTGFLMEEVDALWGADWPLQTHEILANTLCALVVLHMAAAIFESFQVRDNLPLSMLTGKRRPLPEDDYR”, “failed”.
As for “MSRYRLREHAWCLRQLNVSNKSFLKRSFLVGLGYTPPIRYFIDIGPLPNWTRKEVNELILGRTRVRSPILKLLIELFVHRICSDPRFQVKSSSVNA”, the entry is “failed”.
On to “MSSALLRAAYAYDRLRAHPPEVAGQIATAMASAVHPKGEEPVFLELGVGTGRIALPLIARGYRYIALDADAAMLEVFRQKIAGVDRKVQVVQADARAIPLPDESVHGVIVVHLWHLVPDWPKVLAEAIRVLKPGGALLEGWDQAEASPEWTLQERWRAFAAEEGFPVERGLHAKRLKEVEEALRRLGLKPRTREVARWREERTPREALEALSERLYSFTQGLPEPVHARVMERLWAWAEAELGDLDRPFPVEKRFLLRVSRLG”, for which the protein production result is “not failed”.
As for “MSSCCGPASPASSGPRTRRPRTATAQGDRHLFFAVYTIVPTDAYFGDAAVCFPPARPHMPIRRSLTIALFLLFPALGSGCQSTAPSTSSPSATEDAPAPLIVISIDGLRWDYLDRHEAPALSRIAEDGAHVDHLTPVFPTKTFPNHYSAVTGLYPSRHGIIANTMYDPAMDASFSLSDREAVMNPDWWGGEPIWVTAEQQGRTAATYFWPGSEAPVRGTRPTEWFEYDGSVPGTTRVDQALQWLDRPADTRPDLITLYFSRVDTKGHRHGPRSDSVATALREVDGFIQRLLDGLAARGLADAVNVMVTGDHGMSPTSRDRTIVLDDYIDPDDVRLTARNPVAMMEPRPGIPADSVVTALDQAPHLSAYRRGTLPDTLHFEGHRRIPSVIAVADDRWSIRTQAWMDENPDWTGGGTHGYDPRSENMHTLLAARGPGFRRNTTVDQLSLLHLYELMSALLDVEPAPNDGRLEAARPLLLPASARTAE”, the entry is “failed”; as for “MSSEEDKITRISIEPEKQTLLDHHTEKHFTAGEIVRDIIIGVSDGLTVPFALAAGLSGANASSSIVLTAGIAEVAAGAISMGLGGYLAAKSEEDHYAREMKREQEEIVAVPETEAAEVAEILAQYGIEPHEYSPVVNALRKNPQAWLDFMMRFELGLEKPDPKRALQSAFTIAIAYVLGGFIPLLPYMLIPHAMDAVVASVVITLFALFIFGYAKGHFTGSKPLRSAFETAFIGAIASAAAFCLAKVVQH”, “failed”.
As for “MSSEHIDEVSGISTTGHEWDGIRELNNPLPRWWVITFYITVAWAVAYTIAYPAWPMLSSATKGVLGYSSRNAVKIELAAAEAAKGKYVAAIQQKTVSEIAADDALREFAVAAGGATFKVNCVQCHGSGAQGSKGFPNLNDDDWLWGGTTEQIQQTIAHGIRFASDPDTRQSEMPPFGDIITPEQIAQVGAYVASLSGKVQDASLIEPGAKVFGENCVACHGDNAKGNKELGAPNLTDAIWLYAPGETAIAVQVRAPKHGVMPAWIGRLGETKVKELAVYVHSLGGGE”, the entry is “failed”; as for “MSSEVEQNVPCEACGCSAEMGFVIKEGDDVAEVSIFADNKVLLESEFSNYLALAKEVCADVEHSIVITEDEKELHARLKFSCSAEKLIYELKTRSLRRLEHHHHHH”, “failed”.
As for “MSSITADNAGQYGDSRKLAARARLHSQYTIAETAWFPWVAAQLSLKPGDRVLDVGCGPAWFWAATTGLLPADLDLTLTDLSPGMVDEAVARCSALPFGSVRGCQADAAALPFEDGAFDAVVAMHMLYHLTDPVAGIADMSRVLKPGGLLAVTTNGAGNMREIYALTTLFGSAPSDPAAEAFGYDAAERSMRSQFGNVTMSQHPASLRITEPEDVFLALTSYPPGDGAGEPQLTRFRQAIADAFSQRSGVLEVSKETALFLSRKTV”, the protein production entry is recorded as “failed”.
As for “MSSKIFCKSWGAEYIAADVVRFRLWATGQQKVMLRLAGKDQEMQANGDGWFTLDVAGVTPGTEYNFVLSDGMVVPDPASRAQKTDVNGPSYVVDPGSYTWRNTGWKGSRWEQAVVYEMHTGTFTPEGTFRAAIAKLPYLAELGVTVIEVMPVAQFGGERGWGYDGVLLYAPHSAYGTPDDFKAFIDAAHGYGLSVVLDIVLNHFGPEGNYLPLLAPAFFHKERMTPWGNGIAYDVDAVRRYIIEAPLYWLTEYHLDGLRFDAIDQIEDSSARHVLVEIAQRIREDITDRPIHLTTEDSRNIISLHPRDQDGNAPLFTAEWNDDFHNAVHVFATGETQAYYNDFADAPEKHLARALAEGFAYQGEISPQTGEPRGVKSTGQPPVAFVDFIQNHDQVGNRAQGDRLITLAGAERTKVLLATLLLSPHIPLLFMGEEYGESRPFLFFTDFHGDLARAVREGRAKEFADHAGENVPDPNAPETFQRSKLNWKQQHSEEGKAWLAFTRELLLLRQKHIVPLLSAARESSGTVLQTAPGFIAVSWRFPGGTLSLALNISATTVLLPDLPGKTLFAWPNESTGSLSQHSLIVRLAQGESAS”, the entry is “not failed”; as for “MSSLFNVNAQFWASLIDSPLKILVHILDIAIVSWLIYKFIKALAGTKVMSLVQGVVLFVLFKFVAEFLGFTTIAFLMNQVITYGVIAGVVIFAPEIRSGLERFGRTPQSFIQRQQLSDDEKLVAAFVKAVAYMSPRKIGALVSIEETQTLREYIATGIPLDADISGELLINIFIPNTPLHDGAVIVEGNKIAVSCAYLPLSESSHISKEFGTRHRAAIGLSEASDAFTFVVSEETGAISVAYKGDFIHDLSLEAFEVLLREHFIKEEPKKKNWMKQFFGGRHHV”, “failed”; as for “MSSLKGKRIGFGLTGSHCTYEAVFPQIEELVNEGAEVRPVVTFNVKSTNTRFGEGAEWVKKIEDLTGYEAIDSIVKAEPLGPKLPLDCMVIAPLTGNSMSKLANAMTDSPVLMAAKATIRNNRPVVLGISTNDALGLNGTNLMRLMSTKNIFFIPFGQDDPFKKPNSMVAKMDLLPQTIEKALMHQQLQPILVENYQGND”, “failed”.
As to “MSSLVQSVDWLAIAPPTLAAVVGLVVLVADLFIGDHKKALLGWVSVAGLAASALLLLPLLDGDRATFCLTGDANTCSYTADHFTLAIQFLVLGGALLAALLSVTALKDADREIPEGEFWFLLLSSAAGAALLPASRDLATLIVALEVASLPAFALVGIKRGDKKSSEAALKFFLSSVTATAVSLMGVSFVYASTGTLYLTEIARKIQHVDGQLHTLAQTGVVLTLVGFAFKTAAVPFHFWVPDTYVGAPLPIAAYLSVVGKAVGFSGLILVTVVAFPSYADVWGPALAALAALTMTVGNVGALRQQATRAYSAVRLLAWSSVGQAGYLLVPIAAAAYSKDAEKAIGSTVAYALMYAAVNLGAFAVAALVGRTKVLNRVSDYRGLYASNPLAALLLGFFLLCLAGLPPGIIGLFAKVTVFSAAVDAGLGWLAVVMAVNVVIALFYYLQWTTLLFRAPEGEPEKHRVPAPLTAAIALTAVLGVALSGAPQLVLRFSDTGLF”, the protein production result is “failed”.
